Measured values published in publication doi:10.1101/2021.08.01.454623.

Target: CL11 (ribosomal protein L11 C-terminal domain, wild type) (Bacillus stearothermophilus, UniProt P56210 59-133)
Test: SPR

Sequence of CL11 (ribosomal protein L11 C-terminal domain, wild type) (P56210 59-133): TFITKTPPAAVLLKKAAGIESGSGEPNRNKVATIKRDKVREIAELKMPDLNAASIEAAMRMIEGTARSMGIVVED

B1: biotinylated 58rRNA (structured_RNA)
RNA: GCCAGGAUGUAGGCUUAGAAGCAGCCAUCAUUUAAAGAAAGCGUAAUAGCUCACUGGU
Kd: 2.4 nM
